Measured values: PMC9352680, “A comprehensive thermodynamic model for RNA binding by the Saccharomyces cerevisiae Pumilio protein PUF4”

T1: PUF4 RNA-binding domain (Saccharomyces cerevisiae, UniProt P25339 537-888)
T1 sequence: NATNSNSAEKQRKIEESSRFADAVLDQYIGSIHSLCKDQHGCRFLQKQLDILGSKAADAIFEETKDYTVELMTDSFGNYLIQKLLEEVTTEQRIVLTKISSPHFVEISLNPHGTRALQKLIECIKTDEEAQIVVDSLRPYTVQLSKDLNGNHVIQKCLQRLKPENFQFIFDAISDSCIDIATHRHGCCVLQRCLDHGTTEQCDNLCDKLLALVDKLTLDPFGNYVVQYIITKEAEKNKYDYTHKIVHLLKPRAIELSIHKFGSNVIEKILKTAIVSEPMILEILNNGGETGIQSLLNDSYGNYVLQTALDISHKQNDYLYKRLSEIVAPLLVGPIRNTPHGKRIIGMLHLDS


Target: T1, PUF4 RNA-binding domain
Assay: Mg; RNA-MaP; 20 mM Na-HEPES pH 7.4, 30 mM KOAc, 0.75 mM MgCl2, 0.1% Tween-20, 5% glycerol, 0.1 mg/mL BSA, 2 mM DTT; 25 C; 0.0125-409.6 nM protein
Details: tags: N-His6-TEV cleaved; C-SNAP kept, Cy3B-labelled; label: tethered on chip by stalled RNA polymerase

Binder | Kd [nM]
Ic_S4_P5E.1_K5.1_C5.1_H5.1_A5.1_[T5A]_[T6C]_[A7T]_F5.1_[T8A]_[T9G]_[A10T]_T5.1 (ssRNA) RNA: UUUGACAACUGAUCGUUCUUUCUUGUAACUAGUUUCUUUCUCGAUCAGUUGUCUUU | 586
Ic_S4_P5E.1_K5.1_C5.1_H5.1_A5.1_[T5A]_[T6A]_[A7C]_F5.1_[T9G]_[A10G]_T5.1 (ssRNA) RNA: UUUGACAACUGAUCGUUCUUUCUUGUAAACUGGUUCUUUCUCGAUCAGUUGUCUUU | 280
Ic_S4_P5E.1_K5.1_C5.1_H5.1_A5.1_[T5G]_[T6C]_[A7T]_F5.1_[T8C]_[T9C]_[A10C]_T5.1 (ssRNA) RNA: UUUGACAACUGAUCGUUCUUUCUUGUAGCUCCCUUCUUUCUCGAUCAGUUGUCUUU | 658
Ic_S4_P5E.1_K5.1_C5.1_H5.1_A5.1_[T5C]_[T6C]_[A7G]_F5.1_[T8A]_[T9C]_[A10C]_T5.1 (ssRNA) RNA: UUUGACAACUGAUCGUUCUUUCUUGUACCGACCUUCUUUCUCGAUCAGUUGUCUUU | 1020
Ic_S4_P5E.1_K5.1_C5.1_H5.1_A5.1_[T5C]_[T6A]_[A7T]_F5.1_[T8G]_[A10G]_T5.1 (ssRNA) RNA: UUUGACAACUGAUCGUUCUUUCUUGUACAUGUGUUCUUUCUCGAUCAGUUGUCUUU | 24
Ic_S4_P5E.1_K5.1_C5.1_H5.1_A5.1_[T5G]_[A7G]_F5.1_[T8C]_[T9C]_[A10T]_T5.1 (ssRNA) RNA: UUUGACAACUGAUCGUUCUUUCUUGUAGUGCCUUUCUUUCUCGAUCAGUUGUCUUU | 956
Ic_S4_P5E.1_K5.1_C5.1_H5.1_A5.1_[T5A]_[T6C]_[A7C]_F5.1_[T9A]_[A10T]_T5.1 (ssRNA) RNA: UUUGACAACUGAUCGUUCUUUCUUGUAACCUAUUUCUUUCUCGAUCAGUUGUCUUU | 5.91
Ic_S4_P5E.1_K5.1_C5.1_H5.1_A5.1_[T5A]_[T6A]_[A7T]_F5.1_[T9C]_[A10T]_T5.1 (ssRNA) RNA: UUUGACAACUGAUCGUUCUUUCUUGUAAAUUCUUUCUUUCUCGAUCAGUUGUCUUU | 28.2
Ic_S4_P5E.1_K5.1_C5.1_H5.1_A5.1_[T5G]_[T6C]_[A7T]_F5.1_[A10T]_T5.1 (ssRNA) RNA: UUUGACAACUGAUCGUUCUUUCUUGUAGCUUUUUUCUUUCUCGAUCAGUUGUCUUU | 34.7
Ic_S4_P5E.1_K5.1_C5.1_H5.1_A5.1_[T5C]_F5.1_[T9A]_[A10C]_T5.1 (ssRNA) RNA: UUUGACAACUGAUCGUUCUUUCUUGUACUAUACUUCUUUCUCGAUCAGUUGUCUUU | 3.28
Ic_S4_P5E.1_K5.1_C5.1_H5.1_A5.1_[T5A]_[T6C]_[A7T]_F5.1_[T8C]_[T9A]_T5.1 (ssRNA) RNA: UUUGACAACUGAUCGUUCUUUCUUGUAACUCAAUUCUUUCUCGAUCAGUUGUCUUU | 857
Ic_S4_P5E.1_K5.1_C5.1_H5.1_A5.1_[T5C]_[A7C]_F5.1_[T9C]_[A10G]_T5.1 (ssRNA) RNA: UUUGACAACUGAUCGUUCUUUCUUGUACUCUCGUUCUUUCUCGAUCAGUUGUCUUU | 120
Ic_S4_P5E.1_K5.1_C5.1_H5.1_A5.1_[T5C]_[T6C]_[A7T]_F5.1_[A10T]_T5.1 (ssRNA) RNA: UUUGACAACUGAUCGUUCUUUCUUGUACCUUUUUUCUUUCUCGAUCAGUUGUCUUU | 12.3
Ic_S4_P5E.1_K5.1_C5.1_H5.1_A5.1_[T5C]_[T6G]_[A7T]_F5.1_[T8C]_[T9C]_[A10C]_T5.1 (ssRNA) RNA: UUUGACAACUGAUCGUUCUUUCUUGUACGUCCCUUCUUUCUCGAUCAGUUGUCUUU | 114
Ic_S4_P5E.1_K5.1_C5.1_H5.1_A5.1_[T6C]_F5.1_[T8C]_[T9A]_[A10T]_T5.1 (ssRNA) RNA: UUUGACAACUGAUCGUUCUUUCUUGUAUCACAUUUCUUUCUCGAUCAGUUGUCUUU | 183
Ic_S4_P5E.1_K5.1_C5.1_H5.1_A5.1_[T5A]_F5.1_[T9C]_T5.1 (ssRNA) RNA: UUUGACAACUGAUCGUUCUUUCUUGUAAUAUCAUUCUUUCUCGAUCAGUUGUCUUU | 113
Ic_S4_P5E.1_K5.1_C5.1_H5.1_A5.1_[T6C]_[A7C]_F5.1_[T8C]_[T9C]_[A10G]_T5.1 (ssRNA) RNA: UUUGACAACUGAUCGUUCUUUCUUGUAUCCCCGUUCUUUCUCGAUCAGUUGUCUUU | 674
Ic_S4_P5E.1_K5.1_C5.1_H5.1_A5.1_[T6A]_[A7G]_F5.1_[T9A]_[A10C]_T5.1 (ssRNA) RNA: UUUGACAACUGAUCGUUCUUUCUUGUAUAGUACUUCUUUCUCGAUCAGUUGUCUUU | 3.94
Ic_S4_P5E.1_K5.1_C5.1_H5.1_A5.1_[T5G]_F5.1_[T8A]_[T9C]_[A10C]_T5.1 (ssRNA) RNA: UUUGACAACUGAUCGUUCUUUCUUGUAGUAACCUUCUUUCUCGAUCAGUUGUCUUU | 1160
Ic_S4_P5E.1_K5.1_C5.1_H5.1_A5.1_[T5C]_[T6C]_[A7T]_F5.1_[T8C]_[T9C]_T5.1 (ssRNA) RNA: UUUGACAACUGAUCGUUCUUUCUUGUACCUCCAUUCUUUCUCGAUCAGUUGUCUUU | 198
UCUCUUUGUAAAUUCUCUCUU (ssRNA) [Ib_S1_P4E.1_K4.1_C4.1_H4.1_A4.1_[T5A]_F4.1_[A9C]_T4.1] | 26.3
UCUCUUUGUACAUUUUCUCUU (ssRNA) [Ic_S1_P4E.1_K4.1_C4.1_H4.1_A4.1_[T5C]_F4.1_[A9T]_T4.1] | 5.25
UCUCUUUGUAAAUUGUCUCUU (ssRNA) [Ic_S1_P4E.1_K4.1_C4.1_H4.1_A4.1_[T5A]_F4.1_[A9G]_T4.1] | 10.9
UCUCUUUGUAAAUUUUCUCUU (ssRNA) [Ic_S1_P4E.1_K4.1_C4.1_H4.1_A4.1_[T5A]_F4.1_[A9T]_T4.1] | 18.3
UCUCUUUGUACAUUCUCUCUU (ssRNA) [Ib_S1_P4E.1_K4.1_C4.1_H4.1_A4.1_[T5C]_F4.1_[A9C]_T4.1] | 5.41
